Numbered stars: 1 amine (or outer) side, 2 acyl side, 3 side chain; on linkers, the order of the positions; unused ones are H or OH. Square brackets hold non-standard residues; d marks the D form. Ends that are not written are not given here. OSE = (2S)-2-amino-3-sulfooxy-propanoic acid, sulfo-serine, O=C([C@H](COS(=O)(=O)O)N[*:1])[*:2]; Abu(4-PO3H2) = N[C@@H](CCP(=O)(O)O)C(=O)O; pS = N[C@@H](COP(=O)(O)O)C(=O)O

Sequences and labels used below:
B1: DOT1L_(998–1006) peptide LPASPAHQL (peptide)
peptide: LPASPAHQL
B2: MLL_(747–755) peptide EPRSPSHSM (peptide)
peptide: EPRSPSHSM
B3: pMLL_(747–755) phosphopeptide EPR(pS)PSHSM (peptide)
peptide: EPR[pS]PSHSM
B4: pDOT1L_(998–1006) phosphopeptide LPA(pS)PAHQL (peptide)
peptide: LPA[pS]PAHQL
B5: E7P-MLL_(747–755) peptide EPR(E7P)PSHSM (peptide)
chain: EPR[Abu(4-PO3H2)]PSHSM
B6: OSE-MLL_(747–755) peptide EPR(OSE)PSHSM (peptide)
peptide: EPR[OSE]PSHSM

The assay deals with T1, HLA-B*0702, biotinylated recombinant HLA class I molecule of the Alpha assay (human, biotin).
T1 chain: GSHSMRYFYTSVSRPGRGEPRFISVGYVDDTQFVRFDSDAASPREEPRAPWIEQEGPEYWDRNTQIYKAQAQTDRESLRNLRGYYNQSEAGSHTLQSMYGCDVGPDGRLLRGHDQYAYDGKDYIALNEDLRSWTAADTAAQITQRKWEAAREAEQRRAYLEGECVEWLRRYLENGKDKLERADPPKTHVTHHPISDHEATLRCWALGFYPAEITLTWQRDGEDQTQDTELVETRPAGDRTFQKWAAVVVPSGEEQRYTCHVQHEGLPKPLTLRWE
Usually Kd stands for the concentration at which binding is half-saturated. For B1, the Kd turned out to be 54.3 nM.

As to B2, the Kd amounted to 27 nM.

As for B3, the dissociation constant Kd turned out to be 56.7 nM.

For B4, the Kd amounted to 309 nM.

As to B5, the dissociation constant Kd is 33.9 nM.

On to B6, for which the Kd turned out to be 26.2 nM.

Values taken from publication PMC10290117 (2023).
